These are literature values, as cited in PMC6191488.

The series addresses IgE Fc (Homo sapiens) (UniProt P01854).
Chain of UniProt P01854 (P01854 104-427): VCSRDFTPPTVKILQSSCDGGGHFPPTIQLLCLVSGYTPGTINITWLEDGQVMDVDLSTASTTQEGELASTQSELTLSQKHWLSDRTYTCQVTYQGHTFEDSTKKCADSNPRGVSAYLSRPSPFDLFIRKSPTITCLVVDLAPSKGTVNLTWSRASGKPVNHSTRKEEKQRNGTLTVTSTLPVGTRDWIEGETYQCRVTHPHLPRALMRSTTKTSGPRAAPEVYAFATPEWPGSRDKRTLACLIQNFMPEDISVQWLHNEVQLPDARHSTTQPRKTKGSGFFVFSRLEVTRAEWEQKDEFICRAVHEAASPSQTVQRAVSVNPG

A word on the Kd: it is a measure of binding affinity in units of concentration. In the case of “FcεRI alpha chain ECD (from UniProt P12319)”, the Kd was 0.37 nM.
